Reference: PMC6474325, “PPR Protein BFA2 Is Essential for the Accumulation of the atpH/F Transcript in Chloroplasts”

T1: BFA2 (MBP-BFA2, mature) (Arabidopsis thaliana, UniProt O65567 62-904)
T1 sequence: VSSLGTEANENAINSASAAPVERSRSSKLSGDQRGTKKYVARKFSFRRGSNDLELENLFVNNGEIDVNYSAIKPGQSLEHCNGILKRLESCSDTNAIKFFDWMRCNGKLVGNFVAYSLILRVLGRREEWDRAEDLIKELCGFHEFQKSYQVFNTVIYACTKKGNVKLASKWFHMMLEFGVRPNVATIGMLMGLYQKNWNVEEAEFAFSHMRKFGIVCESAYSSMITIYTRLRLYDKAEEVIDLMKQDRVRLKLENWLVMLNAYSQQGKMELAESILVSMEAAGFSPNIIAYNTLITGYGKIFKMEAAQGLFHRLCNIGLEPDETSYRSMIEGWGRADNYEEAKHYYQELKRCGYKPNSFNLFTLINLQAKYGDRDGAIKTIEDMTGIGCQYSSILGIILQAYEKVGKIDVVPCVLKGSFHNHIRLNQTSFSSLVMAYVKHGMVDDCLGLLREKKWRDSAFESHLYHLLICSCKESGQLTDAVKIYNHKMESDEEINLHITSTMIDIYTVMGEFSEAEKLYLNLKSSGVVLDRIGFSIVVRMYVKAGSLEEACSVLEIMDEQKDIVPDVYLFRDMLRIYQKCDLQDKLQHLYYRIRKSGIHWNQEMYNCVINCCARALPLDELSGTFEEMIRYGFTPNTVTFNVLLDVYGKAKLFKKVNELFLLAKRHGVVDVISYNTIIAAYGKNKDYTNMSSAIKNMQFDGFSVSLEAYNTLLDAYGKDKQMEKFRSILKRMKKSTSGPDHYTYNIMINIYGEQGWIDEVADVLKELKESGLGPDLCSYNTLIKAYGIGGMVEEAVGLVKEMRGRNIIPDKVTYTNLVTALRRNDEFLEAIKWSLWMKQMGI


How the values were obtained:
BFA2 (MBP-BFA2, mature) [1] = target: T1, BFA2 (MBP-BFA2, mature); assay: EMSA; 1 ug tRNA, 2 mM Mg2+; complex detected at protein 3x molar over RNA; 10 mM HEPES pH 7.5, 20 mM KCl, 2 mM MgCl2, 1 mM DTT, 5% glycerol, 1 ug yeast tRNA, 20 C, 30 min; 6% native PAGE with 2.5% glycerol; conditions: protein: recombinant; tags: MBP (pMAL-c5x); label: 5'-biotin on probe; single strand
BFA2 (MBP-BFA2, mature) [2] = target: T1, BFA2 (MBP-BFA2, mature); assay: competition; unlabeled ndhA RNA; 1000-fold excess does not affect complex with labeled atpF sRNA; 10 mM HEPES pH 7.5, 20 mM KCl, 2 mM MgCl2, 1 mM DTT, 5% glycerol, 1 ug yeast tRNA, 20 C, 30 min; 6% native PAGE with 2.5% glycerol; conditions: protein: recombinant; tags: MBP (pMAL-c5x); label: none; single strand

Binder	binding result (BFA2 (MBP-BFA2, mature) [1])	binding result (BFA2 (MBP-BFA2, mature) [2])
UAUAGGCAUUAUUUUUUUUUCU (ssRNA) [atpF sRNA (atpF-atpA intergenic)]	binds	
UUAUGACGAUACUCGGUAGCAUAGAUAUAA (ssRNA) [ndhA 5' end sRNA]		no binding
